Columns and labels:
Type in all cases: cell-based
[1] = test system: WIS1 naive human ESCs; test: PGCLC induction from naive ESCs, NANOS3-mCherry FACS; conditions: 2 days N2-KSR medium then 4 days PGC medium
From the text: FIGS. 96A-96I depict the process of differentiating human ESCs into primordial germ cell like cells. FIG. 96A—schematic illustration of the differentiation process. FIGS. 96B-96I—FACS analyses for detecting PGCLC marker expression NANOS3-Cherry. […] Shown are FACS results after 2 (FIGS. 96D and 96G), 4 (FIGS. 96E and 96H), and 6 (FIGS. 96F and 961) days in the PGC medium. The Figures show specific induction of mCherry reporter at Day 2+4 and only when BMP4 is included in the differentiation medium (FIG. 96E). […] One representative experiment is shown out of five performed. +/− indicates s.d. (n=5).
N2-KSR medium—250 ml Neurobasal medium (Invitrogen—#21103-049), 250 ml DMEM-F12, N2 supplement (Invitrogen, #17502-048), 1% KSR (knockout serum replacement, Invitrogen, #10828028) medium] with 8 ng/ml bFGF (Peprotech), 1 ng/ml TGF-β1 (Peprotech) and ROCKi (10 μM).
PGC medium is comprised of GMEM (Invitrogen, #21710082), 15% KSR, 1% NNEA (Biological industries, 01-340-1B), Penicillin-Streptomycin, 1 mM L-Glutamine, […] (Y-27632, Axon Medchem) and the following cytokines: 500 ng/ml BMP4 (bone morphogenetic protein 4; R&D Systems Inc.), 20 ng/ml LIF (leukemia inhibitory factor; PeproTech), 100 ng/ml SCF (Stem Cell Factor; PeproTech), 50 ng/ml EGF (Epidermal Growth Factor; Peprotech). […]

[2] = test system: naive hESCs/hiPSCs; test: Pluripotency maintenance after supplementation of inhibitors or growth factors; conditions: naive human cells in WIS-NHSM
Method: (§1) Shown are histograms depicting colony formation of pluripotent cell lines in various media. Cell populations were equally divided and plated on gelatin/vitronectin coated plates in the indicated growth medium in which these cell lines are normally maintained (mouse naive cells in a medium containing 2i/LIF, naive hESCs/iPSCs in a WIS-NHSM medium, mouse EpiSCs and human primed ESCS/iPSCs in a KSR/bFGF/TGFβmedium). 36 hours later the wells were supplemented with the indicated inhibitors or growth factors. After 14 days (2 passages), wells were analyzed for Oct4-GFP pluripotency marker expression by FACS, to determine the relative percentage of pluripotent colonies. Pluripotent cell frequency was normalized to an internal control, as indicated by “Growth medium” only on the far left column (For naive cells growth medium was WIS-NHSM, and for primed cells was conventional KSR/bFGF/TGFβcontaining medium as specified in methods). […]
(§2) FIGS. 108A-108C—Signaling and functional characteristics of human naive pluripotency. […] After 14 days (2 passages), wells were analyzed by OCT4 immunostaining of direct detection of OCT4-GFP pluripotency reporter expression, to determine the relative percentage of undifferentiated pluripotent cells. […] After 20 days, colonies positive for OCT4 pluripotency markers were counted and normalized to colonies from cells electroporated with empty vector. […]

[3] = test system: primed hESCs/hiPSCs; test: as above; conditions: primed human cells
Method: as §1, §2

B1: BMP4: bone morphogenetic protein 4, recombinant human (protein, UniProt P12644 293-408, looked up)
Bone morphogenetic protein 4: SPKHHSQRARKKNKNCRRHSLYVDFSDVGWNDWIVAPPGYQAFYCHGDCPFPLADHLNSTNHAIVQTLVNSVNSSIPKACCVPTELSAISMLYLDEYDKVVLKNYQEMVVEGCGCR
[1]
  cells expressing NANOS3-mCherry reporter: 17.7%
[2]
  response of pluripotent state: do not differentiate
[3]
  response of pluripotent state: differentiated
